Six molecules from US20130064763A1 (NATIONAL RESEARCH COUNCIL OF CANADA, published 2013) can be followed below.

Broadly, the Kd is a measure of binding affinity in units of concentration. By koff is commonly meant the rate constant with which the complex falls apart. By kon is commonly meant a measure of how fast the partners come together.

One test deals with T1, recombinant human ICAM-1 (human, UniProt P05362 28-480).
T1 construct: Bought recombinant protein; In SPR it was captured on an SA sensor chip; also called intercellular adhesion molecule 1; CD54
T1 sequence (P05362 28-480 limits assumed): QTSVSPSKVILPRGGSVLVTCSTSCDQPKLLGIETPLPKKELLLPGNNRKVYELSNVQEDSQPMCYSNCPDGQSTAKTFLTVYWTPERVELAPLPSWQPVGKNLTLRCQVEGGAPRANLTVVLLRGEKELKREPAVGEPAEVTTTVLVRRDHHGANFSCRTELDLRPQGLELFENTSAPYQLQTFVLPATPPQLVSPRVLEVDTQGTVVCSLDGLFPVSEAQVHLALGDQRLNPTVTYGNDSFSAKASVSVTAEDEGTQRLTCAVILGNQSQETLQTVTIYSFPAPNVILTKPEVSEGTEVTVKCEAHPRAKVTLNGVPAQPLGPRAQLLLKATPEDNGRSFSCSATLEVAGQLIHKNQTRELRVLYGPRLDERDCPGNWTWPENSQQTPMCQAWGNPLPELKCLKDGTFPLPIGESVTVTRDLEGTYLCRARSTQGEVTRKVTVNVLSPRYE
Put plainly: SPR (Biacore 3000), ICAM-1 captured on SA chip, monomeric VHH injected, 25 C. The method, then:
Three clones (5-5, 11-4, and 34-1) obtained in Example 4 were individually passed through size exclusion columns, Superdex 75 (GE Healthcare) in 10 mM HEPES, pH 7.4, containing 150 mM NaCl, 3 mM EDTA; monomeric sdAb fractions were collected and protein concentrations were determined by measuring A₂₈₀. SPR analyses were performed with Biacore 3000 instrument (GE Healthcare). All measurements were carried out at 25° C. in 10 mM HEPES, pH 7.4, containing 150 mM NaCl, 3 mM EDTA and 0.005% surfactant P20 (GE Healthcare). Approximately 700-900 RUs of the recombinant ICAM-1 was captured on SA sensor chip (GE Healthcare) at a flow rate of 5 μl/min. Various concentration of the monomeric VHH were injected over the ICAM-1 surface, using a SA surface as a reference, at a flow rate of 40 μl/min. Surfaces were generated by washing with running buffer. Data were analysed with BIAevaluation 4.1 software.
A general note: Surface plasmon resonance follows binding to a sensor surface in real time, without labels.

The target in test [1] is T2, rat ICAM-1 on LPS-induced rat brain endothelial cells (SV-RBEC) (rat, UniProt Q00238 28-545).
T2 construct: whole, on cells; Endogenous protein on fixed cells
T2 sequence (looked up): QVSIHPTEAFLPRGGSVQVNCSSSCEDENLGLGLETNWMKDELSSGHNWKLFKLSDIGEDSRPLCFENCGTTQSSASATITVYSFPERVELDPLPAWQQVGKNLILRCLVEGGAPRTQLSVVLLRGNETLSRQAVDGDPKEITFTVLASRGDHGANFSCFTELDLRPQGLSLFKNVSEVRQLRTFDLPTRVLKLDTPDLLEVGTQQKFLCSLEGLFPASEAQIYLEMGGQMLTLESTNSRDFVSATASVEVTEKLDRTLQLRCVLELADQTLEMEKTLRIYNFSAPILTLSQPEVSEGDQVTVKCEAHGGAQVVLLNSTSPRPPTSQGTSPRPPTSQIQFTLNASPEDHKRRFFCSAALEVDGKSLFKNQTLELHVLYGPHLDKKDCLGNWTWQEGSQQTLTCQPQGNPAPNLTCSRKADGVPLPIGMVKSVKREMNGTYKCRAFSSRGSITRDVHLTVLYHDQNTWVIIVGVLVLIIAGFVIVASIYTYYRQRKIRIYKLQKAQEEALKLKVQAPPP
Put plainly: immunofluorescence with Cy5.5-labelled sdAb on fixed SV-RBEC cells with or without LPS. As for the experimental part:
Rat brain endothelial cells (SV-RBEC) were cultured on coverslips for 3 days in DMEM and 10% FBS. ICAM-1 expression was induced by adding 5 μg (1 mg/ml) of lipopolysaccharide (LPS; Sigma) overnight. Cells were then washed 3× with cold PBS, fixed with 3.7% formaldehyde for 20 min, washed again 3× in PBS at RT, and then blocked with 5% of normal goat serum/PBS for 1 h at RT. 25 μg anti-ICAM-1 IgG or 50 μg anti-ICAM-1 single domain antibodies (34-1, 11-4, 5-5) labelled with Cy5.5 (red) were incubated for 1 h at RT then washed 3× in PBS. The washed cells were incubated in 1:500 WGA-FITC/PBS for 1 min on ice, for membrane staining (green) then washed again 3× with PBS. Coverslips were then mounted in DAKO mounting medium containing 2 μg/ml of Hoechst for nuclear staining (blue).

In test [2] the target is T3, mouse ICAM-1 in vivo (vasculature and atherosclerotic plaques of ApoE KO mice) (mouse, UniProt P13597 28-537).
T3 construct: whole, on cells; Endogenous protein in the living animal; also called ICAM-1 receptor
T3 sequence (P13597 28-537): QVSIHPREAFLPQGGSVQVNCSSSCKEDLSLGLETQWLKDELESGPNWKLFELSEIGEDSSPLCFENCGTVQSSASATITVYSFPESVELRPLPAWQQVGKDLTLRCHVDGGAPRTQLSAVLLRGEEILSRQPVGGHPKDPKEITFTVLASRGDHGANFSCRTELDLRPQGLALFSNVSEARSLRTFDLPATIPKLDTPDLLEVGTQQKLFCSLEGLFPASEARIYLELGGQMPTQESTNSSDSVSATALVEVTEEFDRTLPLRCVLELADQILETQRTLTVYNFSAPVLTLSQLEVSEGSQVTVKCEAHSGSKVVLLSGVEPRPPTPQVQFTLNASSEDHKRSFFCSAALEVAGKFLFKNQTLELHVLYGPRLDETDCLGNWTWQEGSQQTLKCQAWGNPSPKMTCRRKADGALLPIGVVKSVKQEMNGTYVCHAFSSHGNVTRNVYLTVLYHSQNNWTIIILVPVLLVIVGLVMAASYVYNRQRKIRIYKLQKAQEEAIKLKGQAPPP
Put plainly: in vivo near-infrared optical imaging of ApoE KO and control mice after injection of Cy5.5-labelled sdAb. The method, then: Anti-ICAM-1 antibodies were labelled with Cy5.5 succimidyl ester using methods recommended by the manufacturer (GE Healthcare). […] The presence of plaques in the aorta of atherosclerotic mice (Example 6) was visualized monthly via tail vein injection of 50 μg of anti-ICAM-1 sdAb using non-invasive in vivo optical imaging. In vivo imaging studies were performed using a small-animal time-domain eXplore Optix MX2 pre-clinical imager (Advanced Research Technologies, Montreal, QC) at 4, 24, 48, and 72 h after injection. For imaging, mice were first anesthetized with isofluorane, and then positioned on an animal stage in a chamber that allows for maintenance of gaseous anesthesia. A pre-injection scan was routinely performed to determine baseline fluorescence level. At the end of the study, animals were euthanized and perfused, organs were removed and imaged. […] The fluorescence emission at 700 nm was collected by a highly sensitive time-correlated single photon counting system and detected through a fast photomultiplier tube. The data were recorded as temporal point-spread functions (TPSF) and the images were reconstructed as fluorescence concentration maps using ART Optix Optiview analysis software 2.0 (Advanced Research Technologies, Montreal, QC).

B1: anti-ICAM sdAb clone 5-5 (VHH)
VHH: QVKLEESGGGLVQAGDSLRLSCAASGRTVNAFRMGWYRQAPGKQRERVAVITAGGTTSYIDSVKGRFTISRDNAKNTVYLQMNSLKPEDTAVYYCAAIDYDSRGQGTQVTVSS
notes: Soluble His6-tagged VHH expressed in E. coli from pSJF2, purified by IMAC, monomeric by SEC; also called llama sdAb clone 5-5
B1: in the test with recombinant human ICAM-1, the Kd turned out to be 60 nM, the koff turned out to be 0.004 s⁻¹ and the kon is 70000 M⁻¹ s⁻¹.

B2: anti-ICAM-1 sdAb clone 5-5 labelled with Cy5.5 (VHH)
VHH: QVKLEESGGGLVQAGDSLRLSCAASGRTVNAFRMGWYRQAPGKQRERVAVITAGGTTSYIDSVKGRFTISRDNAKNTVYLQMNSLKPEDTAVYYCAAIDYDSRGQGTQVTVSS
modifications: labelled with Cy5.5 succimidyl ester, dye/antibody ratio of two; labelled residues not stated
notes: Cy5.5 conjugate of m2
On to B2, for which the binding result in test [1] is recorded as “binds”.

B3: anti-ICAM-1 sdAb clone 11-4 labelled with Cy5.5 (VHH)
VHH: QVQLVESGGGLVQPGGSLRLSCAASGSISSLYVMGWYRQAPGKQRELVADITSSGSIYYVDSLKGRFTISRDNARSTVYLQMNSLEPEDTAVYYCMAHVRQDSGSEYLTYWGQGTQVTVSS
modifications: labelled with Cy5.5 succimidyl ester, dye/antibody ratio of two; labelled residues not stated
notes: also called anti-ICAM-1 sdAb 11-4-Cy5.5; anti-ICAM-1 11-4 sdAb-Cy5.5
Regarding B3, the binding result in test [1] and in test [2] was “binds” each time.

B4: anti-ICAM sdAb clone 11-4 (VHH)
VHH: QVQLVESGGGLVQPGGSLRLSCAASGSISSLYVMGWYRQAPGKQRELVADITSSGSIYYVDSLKGRFTISRDNARSTVYLQMNSLEPEDTAVYYCMAHVRQDSGSEYLTYWGQGTQVTVSS
notes: Soluble His6-tagged VHH expressed in E. coli from pSJF2, purified by IMAC, monomeric by SEC; also called llama sdAb clone 11-4; anti-ICAM-1 sdAb 11-4
Consider B4, for which, in the test with recombinant human ICAM-1, the Kd was 0.9 nM, the koff is 0.002 s⁻¹ and the kon is 2e+06 M⁻¹ s⁻¹.

B5: anti-ICAM-1 sdAb clone 34-1 labelled with Cy5.5 (VHH)
VHH: QVKLEESGGGLVQPGGSLRLSCAASGSIFSINDMGWYRQAPGKQRELVARITRDGSAAYEDSVKGRFTISRDNAPNTVFLQMNGLKPEDTAVYYCNAEIITTQTLGRMLGEYWGQGTQVTVSS
modifications: labelled with Cy5.5 succimidyl ester, dye/antibody ratio of two; labelled residues not stated
notes: Cy5.5 conjugate of m3
On to B5, for which, in test [1], the binding result was “binds”.

B6: anti-ICAM sdAb clone 34-1 (VHH)
VHH: QVKLEESGGGLVQPGGSLRLSCAASGSIFSINDMGWYRQAPGKQRELVARITRDGSAAYEDSVKGRFTISRDNAPNTVFLQMNGLKPEDTAVYYCNAEIITTQTLGRMLGEYWGQGTQVTVSS
notes: Soluble His6-tagged VHH expressed in E. coli from pSJF2, purified by IMAC, monomeric by SEC; also called llama sdAb clone 34-1
Regarding B6, in the test with recombinant human ICAM-1, the Kd was found to be 10 nM, the koff was 0.002 s⁻¹ and the kon worked out at 100000 M⁻¹ s⁻¹.
